Experimental data: the DeepSol protein solubility set

Test: soluble on expression in E. coli; label from the status in PepcDB or PDB records

Soluble on expression in E. coli, soluble:
SDIEQKQAEIIDQLVKRASTCKSEALGPLIIEATSHPSLFAFSEILALPNVAQLEGTTDSVYLDLLRLFAHGTWGDYKCNATRLPHLSPDQILKLKQLTVLTLAESNKVLPYDTLMVELDVSNVRELEDFLINECMYAGIVRGKLDQLKRCFEVPFAAGRDLRPGQLGNMLHTLSNWLNTSENLLISIQDKIKWADNMSEMDKKHRKEAEEGVEEVKKSLSMKGDVDIRGNKEMFGEPSGVMDYEEDGIRPKRRRHPVTR, SDPAGASVASAIGGEGEKFAVGNIYSVKVITGDEFRGIVMAYDPIPNFVFFEEGTKPRPGHLKNTRMVNASFITGLSYLGKTEDPFDSDNFSVDLNGLRAKEALAIRQAEADAERMGVGVTAEAQSIFDALSKTLPVQWENSDILVMKEVRVRSPYLSDCVFGGTDAANNRVKKVLELERRRLQLFGT, SEDCCMLPYYTAQSSPAMGMFNTSMGKLQRQLYKGEYTIFRYAPMFESDFIQISKRGEVIDVHNRARMVTMGIVRTSPCLTLPDVMLLARPAAVCDNARCGPATQKRESPPAEILELTRLLPLMFVKITIHNSVKKQLHLKLATGRSFYLQLCPPSDASEDLFVHWENLVYILRPPVEAYSDTRAILAGNTLDSSVLEEVQRSPVGYAMKFCEEKEQFRISRLHMNAEMFGSTYCDYTIEI, SEQSSPGFRQTHLQDLSEATQDVKEENHYLTPRSVLLELDNIIASSDSGESIETDGPDQVSGRIECHYEPMESYFFKETSHESVDSSKEEPQTLPETQDGDLHLQEQGSGIDWCLSPADVEAQTTNDQKGSASLTVVQLSILINNIPDESQVEKLNVFLSPPDVINYLALTEATGRICVSQWEGPRRLGCIFCHGDHLLAVNDLKPQSLEEVSLFLTRSIQKEKLKLTIGRIPNSETFHAASCMCPSKCQSAAPSQLDKPRLNRAPKRSPAIKKSQQKGARE, SFLNGNCLETLKKKEPEGGRRRLSHPGNMGWMRPSQETTPPDRSHHSGFGLFCGDPGPEIEPFSLWVFPQEMVLEIHQLFMDHEYPCHHITSHCTWVAAHWTTSQSCAAWQGCRRACCSTWWKSPAQCTRPTVMSATFETAQEPGPS, SGRLHCTEDPVPEAVGGDMQQLNQLGAQQFSALTEVLFHFLTEQKEVERFLAQLSEFATTNQISLGSLRSIVKSLLLVPNGALKKSLTAKQVQADFITLGLSEEKATYFSEKWKQNTPTLARWAIGQTLMINQLIDMEWKFGVTSGSSELEKVGSIFLQLKLVVKKGNQTKNVYIELTLPQFYSFLHEMERVRTSMECFC, SIMTVRTTHTEVEVHAGGTVELPCSYQLANDTQPPVISWLKGASPDRSTKVFKGNYNWQGEGLGFVESDSYKESFGDFLGRASVANLAAPTLRLTHVHPQDGGRYWCQVAQWSIRTEFGLDAKSVVLKVTGHTPSNNVHVSTAEVVQVDEGNDITMTCPCTDCANANVTWYTGPTFFENYETGTYQPLANKNQFGITWFSSEIAGRASFSGARNLVIRAAKITDAGRVWCELATGQGELDADRSSTILKV, SIPWNLERITPPRYRADEYQPPDGGSLVEVYLLDTSIQSDHREIEGRVMVTDFENVPEEDGTRFHRQASKCDSHGTHLAGVVSGRDAGVAKGASMRSLRVLNCQGKGTVSGTLIGLEFIRKSQLVQPVGPLVVLLPLAGGYSRVLNAACQRLARAGVVLVTAAGNFRDDACLYSPASAPEVITVGATNAQDQPVTLGTLGTNFGRCVDLFAPGEDIIGASSDCSTCFVSQSGTSQAAAHVAGIAAMMLSAEPELTLAELRQRLIHFSAKDVINEAWFPEDQRVLTPNLVAALPPSTHGAGWQLFCRTVWSAHSGPTRMATAIARCAPDEELLSCSSFSRSGKRRGERMEAQGGKLVCRAHNAFGGEGVYAIARCCLLPQAACSVHTAPPAEASMGTRVHCHQQGHVLTGCSSHWEVEDLGTHKPPVLRPRGQPNQCVGHREASIHASCCHAPGLECKVKEHGIPAPQGQVTVACEEGWTLTGCSALPGTSHVLGAYAVDNTCVVRSRDVSTTGSTSEEAVTAVAICCRSRHLAQASQELQ, SKAWLHQYSVVGRKIPTQEEPEPPIYRLKIFAPNVVNAKSRFWYFLRKLKRVKKSSGEILNISEIFEKKSTQVKNYGIWIRYKSRSDTINMYREYRDVTVNGAVEQMYKDMSGRHRARWSSIWVLKAMPVAAKDCRRSKVTQFHDSKIKFALPHMRPRAPLKKYNTPFKAKRPTTIVQ, SKEIDISCVKIEQVIGAGEFGEVCSGHLKLPGKREIFVAIKTLKSGYTEKQRRDFLSEASIMGQFDHPNVIHLEGVVTKSTPVMIITEFMENGSLDSFLRQNDGQFTVIQLVGMLRGIAAGMKYLADMNYVHRALAARNILVNSNLVCKVSDFGLSRFLEDDTSDPTYTSALGGKIPIRWTAPEAIQYRKFTSASDVWSYGIVMWEVMSYGERPYWDMTNQDVINAIEQDYRLPPPMDCPSALHQLMLDCWQKDRNHRPKFGQIVNTLDKMIRNPNSLKAMAPLSS, SKHKQSSFTKSCYPRGTLSQAVDALYIKAAWLKATIPEDRIKNIRLLKKKTKKQFMKNCQFQEQLLSFFMEDVFGQLQLQGCKKIRFVEDFHSLRQKLSHCISCASSAREMKSITRMKRIFYRIGNKGIYKAISELDILLSWIKKLLESSQ, SLAGETINFCKGWKFHLGDAGKGASSSSYNDSQWRILNIPHDWSIEGTYKQFENGTDWQSGFLPAGISWYRKTFTIPSKWKNKKVQILFEGVYLNSEVWINGHWLGKRPNGYISFVYDLTPYLQEGKNQIAVKVDHSKALTGRWYTGSGIYRPVYLLVSNPTHIPYSGIHFRSKLQNKQSATYTLSIEIETQEKKPIKVKTYLQAPNGSIADTSEKIFVSSADSLCFLSGSIRKPLLWSPDSPNVYTLICQLTRDNKILDECRLPVGFRQLEFNPVSGFLLNGKSLKIKGVCDHHTVGAVGAAVPDDLLHYRLKLLKDMGCNAIRTSHNPFSPAFYNLCDTMGIMVLNEGLDGWNQPKAADDYGNYFDEWWQKDMTDFIKRDRNHPSIIMWSIGNEVTGATPEIQHNLVSLFHQLDPDRPVTQGGTDPTRGMKTDYQKKFNYLDIIGFNGNGEEIGELEHFHKNYPTLCAIATEVPHTYQTRGVYRSQTQWRRRDFPAPWEKGNINWEQFKHRVFPIPDLTEKECFPEESDYPYYQSSYDNASVRISARKSWQRTCSFPWLMGEFRWGSFDYLGEAEWPQRCGNFGIIDIAAIPKDAYFLYQSLWTDKPMVHLLPHWTHPGKEGKTIPVVIYTNCDAVELFINNVSLGSKPYTGEQLIWLVPYSPGKIEARGIKKGKIVATDCYQSAEAPHSVALASNKYSVKAGSDEVIRIEIDITDKNGIPCPYASNELSFHVSGPLRLLGVDNGNPTDMFPYQQPHCRCFRGKCVVLLQSDEEKGKGTLTVQGTKLVEKKLIIEVIEG, SLAVLGLGYAGLFKSQMESLEEYEAKETELKNTYKQKSIDAASLNNLRDELASIRSAFDIMLKQLPTDAEIPNLVQELHQAGSSNGLRLDSVMPQPPVDDGPIKRLPYSISITGNYEQISQFTRDVGSLSRIITLESLKIAQSPENGGNPDGKSSILNLSAIATTYQAKSVEELAAEAAQNAEQK, SLETFHFNYTLISICIYLYIYDGSFISLSEDHKPYNKKEKERIYKIGGFVENGRILGYIGVSRSFGDKNYKIKSDCPYNPHETMISCIPDIKIFYANCDDILFLGCDGLFEMLSWNDVAKFTYDCMNRHTLSDAVINILDYALLSGSKDNITIQIIKFFNE, SLGQRPPIRRIVIDAAIPTKGITIVDVAKELYKVEGVKAVRITVDDVDVDVLGLAIVVEGVDIDYNELEDVLEKVGGVVHSVDEVVVGEYIPEAGRTA

Soluble on expression in E. coli, not soluble:
SDHFNAPVGMLEAITSVEGVDRVVPTIEMTGVAKTDSAFAGILLMGDNSLRTRNPLFGQTVSGNYPSFSSADTVPNPILLPQVTADKLHLKIGDKLRIYFAGTERMRLRAFTVAGVYSGGKMDMPVGLVSADVLRRVGGLGADDVSRLLIYASDPDETDLIVTRVFDRLSETLYVGEQRLTINTATELNPMIMDWLSALDTN, SDNDLKLLALESETIRSVADLHNKRVGMIRASASEFYFDSLLLANNLKGIPIDKVYGTADQLYQQLFDKQLDAISIWEPWGYKIGVAAESKVTNLSLPGIYTLSFNLLTMKPTTEEEKQRSLAILKA, SEMIVDHRQKAFELLKVDAEKILKLIRVQMDNLTMPQCPLYEEVLDTQMFGLSREIDFAVRLGLVDEKDGKDLLYTLERELSALHDAFTAK, SESETRVKSVRTGRKPIGNPEDEQETSKPSDDEFLRGKRVLVVDDNFISRKVATGKLKKMGVSEVEQCDSGKEALRLVTEGLTQREEQGSVDKLPFDYIFMDCQMPEMDGYEATREIRKVEKSYGVRTPIIAVSGHDPGSEEARETIQAGMDAFLDKSLNQLANVIREIESKR, SGMYKIILNQTARYFAKFAPDNEQNILWGLPLQYGWQYRTGRLADPTRRTNCGYESGDHMCISVDSWWADLNYFLSSLPFLAAVDSGVMGISSDQVRLLPPPKNERKFCYDVSSCRSSFPETMNKWNTFYQYLQSPFSKFDDLLKYLWAAHTSTLADNIKSFEDRYDYYSKAEAHFERSWVLAVDHLAAVLFPTTLIRSYKFQKGMPPRILLNTDVAPFISDFTAFQNVVLVLLNMLDNVDKSIGYLCTEKSNVYRDHSESSSRSYGNNS, SGPLRDKVVIFIYWRENDLSIYLDLSGEPISRHGYRLNPWKAPMAETLAAGVIITSEWNPTTPFINPMCGSGTLAIEAALIGTHKIPGLVREDYAFQHIHGYVAETWKTMREMAQQKVLPALPFKIIASDHDQRALDAAKVNAEKAGVDHLIDFVLSDFQDTPVEENQAGVVILNPEYGERLGDEESLVLTYKEIGDFFKQKCGGYKGFVFTGNLELAKRIGLKPKRKIKFFSAKIECRLMQYELYSGTKRVVFKTE, SKEHREIAKKIAQKSMVLLKNENILPFTPQEKIALVGPGAQSQDILGAWSWQGKKEEAISLVAGAQKLTTNLLVAQEPFDYFEPTAAAIEEALTLASQADKVVVALGETDWMSGEAASRSDIRLPEKQLAVVAQIIEKNPNVVVTVYSGRPLDLQGIDVAKGIVQAWQPGTEGGNALAEILWGQYNPSGRLSMSFPETVGQVPIFYNVDNTGRPYESAPEEKYVSKYLDVSNYAKYPFGFGLSYSHF, SKRAATLTDIKHIKQLDLSDHKSLEFARDIFLFSFYMRGMSFIDLAYLRKKDLNSGFVSYSRRKTGKKLIIRWEKQMQEIIDRYGDSETQYLLPIIEREDGTEHRQYRNKMLLVNRKLKKIAARAGLTTPLTMYVARHSWASIAKTKNISIGIISEAMGHDSETTTQIYLSSIQTNQIDNANRN, SLDGILDHTMIRVEDLDASLEWYTTHLNYEEKGRWEAETFTNVYLGPEDAGDAAARLELTYNHDGRSYTMGDAWGHIAVRVPDVEAAYDELMQSGVEDYRPPAENPGYAFVTDPDGHEVEIVERDYGTKWSLDHTMLRVEDVNAALGYWIRTFEYEPTGRWEADSFANYFVSPQDAPAEAMDIELTYNYDGRSYTMGDAWGHVAVRCADLQSAWETLQEREAPDYRDPESCDNRYAFTKAPDGHEIEILPTEEG, SLIDTHCHLDLYPKPGTVIAEADKRGMFVIAVTTTPKAFLGNIRMTEGKKRIRVAVGLHPELVAERHREVEDVCKLMAKTKYVGEIGIDGSPPHKSSIKLQTEVFARFLTRASELGGKVLSIHSRGAAALVLDEIERNGHGTLPILHWFSGSKQQVERAAKLGCWFSVGPAMLRSRKGRELLASMPRHRLLTETDGPFATDVDRPLMPWDVSMALPAIADVWGTTPVGVDQVVSANFRELINATEQGRAAAKLVGNC
